Data reported in patent US20070231899A1 (published 2007).

Experiments:
[1] = biological target: plasmin (Homo sapiens (Human)) (UniProt P00747); assay: surface plasmon resonance, phospholipid-associated annexin A2; phospholipid-associated annexin A2 with plasmin
[2] = biological target: tissue-type plasminogen activator (t-PA) (UniProt P00750); assay: surface plasmon resonance, phospholipid-associated AIIt; AIIt with t-PA
[3] = biological target: plasmin (Homo sapiens (Human)) (UniProt P00747); assay: surface plasmon resonance, phospholipid-associated AIIt; AIIt with plasmin
[4] = biological target: [Glu]-plasminogen (human) (UniProt P00747); assay: surface plasmon resonance, phospholipid-associated AIIt; AIIt with plasminogen
Sequence of [Glu]-plasminogen (human) (P00747 20-810 limits assumed): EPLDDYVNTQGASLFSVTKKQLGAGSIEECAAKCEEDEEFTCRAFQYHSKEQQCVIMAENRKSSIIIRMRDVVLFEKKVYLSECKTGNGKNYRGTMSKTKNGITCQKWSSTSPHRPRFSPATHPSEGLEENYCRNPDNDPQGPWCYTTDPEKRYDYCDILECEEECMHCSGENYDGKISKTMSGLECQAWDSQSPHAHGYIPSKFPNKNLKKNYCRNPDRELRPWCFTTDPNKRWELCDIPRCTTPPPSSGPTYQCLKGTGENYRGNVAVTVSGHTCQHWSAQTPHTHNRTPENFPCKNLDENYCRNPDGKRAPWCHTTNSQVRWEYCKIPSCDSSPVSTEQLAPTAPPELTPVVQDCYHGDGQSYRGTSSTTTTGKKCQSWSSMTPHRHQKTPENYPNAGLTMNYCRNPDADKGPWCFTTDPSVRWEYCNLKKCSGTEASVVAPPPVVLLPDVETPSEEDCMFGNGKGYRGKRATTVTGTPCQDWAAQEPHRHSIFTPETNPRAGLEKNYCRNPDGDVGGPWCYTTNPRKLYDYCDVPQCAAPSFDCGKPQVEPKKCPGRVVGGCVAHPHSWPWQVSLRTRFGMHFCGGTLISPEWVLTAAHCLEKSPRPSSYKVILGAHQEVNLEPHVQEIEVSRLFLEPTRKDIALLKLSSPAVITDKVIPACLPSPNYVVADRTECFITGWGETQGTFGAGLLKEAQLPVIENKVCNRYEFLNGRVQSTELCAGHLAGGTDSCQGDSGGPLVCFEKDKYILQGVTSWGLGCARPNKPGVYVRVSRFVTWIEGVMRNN

[5] = biological target: T1, Annexin II heterotetramer (AIIt) purified from bovine lung (bovine, UniProt P04272 2-339; P60902 2-97); assay: iodinated A61 (0.008-5 µM) on AIIt bound to phospholipid-coated wells, gamma counting
T1 construct: also called annexin II tetramer
T1 sequence (P04272 2-339 limits assumed, chain 1 of 2): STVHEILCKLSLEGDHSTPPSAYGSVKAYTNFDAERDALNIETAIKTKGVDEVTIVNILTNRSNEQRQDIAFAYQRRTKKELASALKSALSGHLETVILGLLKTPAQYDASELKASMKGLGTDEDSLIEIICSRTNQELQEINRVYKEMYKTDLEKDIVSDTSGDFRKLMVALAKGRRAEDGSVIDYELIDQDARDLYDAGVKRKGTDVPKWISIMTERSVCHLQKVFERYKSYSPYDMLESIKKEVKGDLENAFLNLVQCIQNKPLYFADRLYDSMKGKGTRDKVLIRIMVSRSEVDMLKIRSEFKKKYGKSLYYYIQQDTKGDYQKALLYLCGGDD
T1 sequence (P60902 2-97 limits assumed, chain 2 of 2): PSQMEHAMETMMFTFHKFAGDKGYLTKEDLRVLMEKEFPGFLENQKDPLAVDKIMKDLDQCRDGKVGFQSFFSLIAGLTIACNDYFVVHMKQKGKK
Description: Binding of A₆₁ to AIIt—The purified A₆₁ was iodinated according to manufacturer's procedures. Iodinated A₆₁ retained biological activity as determined by the endothelial cell proliferation assay (Kassam et al., 2001). 96-well Immulon-1 Removawell strips (Dynex Technologies) were coated with phospholipid mixture containing 3:1 ratio of phosphatidylserine to phosphatidylcholine and air-dried. The coated strips were blocked with 1% fatty acid-free bovine serum albumin (BSA) in a buffer containing 20 mM Hepes (pH 7.4), 140 mM NaCl, and 2 mM CaCl₂ (buffer A) at room temperature for 2 h. The strips were washed with buffer A and incubated with 1 μM AIIt in buffer A at room temperature for 4 h. The strips were then washed and incubated with 0.008-5 μM iodinated A₆₁ with or without 30-fold molar excess of cold A₆₁ or BSA at 4° C. After overnight incubation, the strips were washed five times with PBS, and individual wells were detached and measured for radioactivity with a γ-counter. The data shown (n=6) are the average of two separate experiments.

Sequence of tissue-type plasminogen activator (t-PA) (P00750 36-562 limits assumed): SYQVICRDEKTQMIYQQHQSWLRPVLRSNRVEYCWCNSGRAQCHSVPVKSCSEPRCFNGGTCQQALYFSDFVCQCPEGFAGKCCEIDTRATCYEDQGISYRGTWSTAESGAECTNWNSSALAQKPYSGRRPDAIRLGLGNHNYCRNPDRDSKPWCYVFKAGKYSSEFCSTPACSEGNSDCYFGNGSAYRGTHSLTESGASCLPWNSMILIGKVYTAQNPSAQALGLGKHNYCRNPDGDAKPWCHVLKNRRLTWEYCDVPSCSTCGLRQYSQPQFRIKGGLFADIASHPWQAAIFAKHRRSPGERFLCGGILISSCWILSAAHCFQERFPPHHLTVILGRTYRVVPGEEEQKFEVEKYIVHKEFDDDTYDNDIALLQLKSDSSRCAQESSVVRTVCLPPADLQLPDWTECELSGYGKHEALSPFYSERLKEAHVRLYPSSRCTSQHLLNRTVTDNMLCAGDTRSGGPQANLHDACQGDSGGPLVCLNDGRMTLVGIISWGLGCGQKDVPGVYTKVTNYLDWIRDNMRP

Question: How did the Kd [1] turn out when “Annexin A2 (p36), phospholipid-associated (from UniProt P07355 2-339)” was run?
Answer: The Kd was 780 nM.

Question: What does the source list for “Annexin II heterotetramer (AIIt), phospholipid-associated, as used in the surface plasmon resonance study of Example 12 (from UniProt P07355 2-339)”?
Answer: Kd [2]: 680 nM; Kd [3]: 750 nM; Kd [4]: 110 nM

B1: A61 antiangiogenic plasminogen fragment (Lys78-Lys468 of plasminogen) (other)
chain: KVYLSECKTGNGKNYRGTMSKTKNGITCQKWSSTSPHRPRFSPATHPSEGLEENYCRNPDNDPQGPWCYTTDPEKRYDYCDILECEEECMHCSGENYDGKISKTMSGLECQAWDSQSPHAHGYIPSKFPNKNLKKNYCRNPDRELRPWCFTTDPNKRWELCDIPRCTTPPPSSGPTYQCLKGTGENYRGNVAVTVSGHTCQHWSAQTPHTHNRTPENFPCKNLDENYCRNPDGKRAPWCHTTNSQVRWEYCKIPSCDSSPVSTEQLAPTAPPELTPVVQDCYHGDGQSYRGTSSTTTTGKKCQSWSSMTPHRHQKTPENYPNAGLTMNYCRNPDADKGPWCFTTDPSVRWEYCNLKKCSGTEASVVAPPPVVLLPDVETPSEEDCMFGNGK
modifications: radioiodinated (iodinated with Iodobeads) in the binding assay
notes: also called AAPF; anti-angiogenesis plasmin fragment
Question: For B1, which Kd [5] is on record?
Answer: Its Kd is 1000 nM.
